Reference: paper PMC9944232

Tests used:
AIFΔ101 WT;Histone H2AX = AIFΔ101 WT;Histone H2AX (Homo sapiens;Homo sapiens, UniProt O95831;P16104 102-613;1-143, |); experiment: ITC; dsDNA titrated into AIF:H2AX 1:1; positive cooperativity; ITC: 50 mM potassium phosphate pH 7.4, 15 °C (25 °C with CypA); EMSA: same buffer, 25 °C, 30 min, 2% agarose; AFM on mica at room temperature; conditions: protein: recombinant;recombinant; tags: N-terminal His6;N-terminal His6 (PreScission site); copies: 1;1; blunt
AIFΔ101 WT;CypA = AIFΔ101 WT;CypA (Homo sapiens;Homo sapiens, UniProt O95831;P62937 102-613;1-165, |); experiment: ITC; dsDNA titrated into AIF:CypA 1:1; negative cooperativity; ITC: 50 mM potassium phosphate pH 7.4, 15 °C (25 °C with CypA); EMSA: same buffer, 25 °C, 30 min, 2% agarose; AFM on mica at room temperature; conditions: protein: recombinant;recombinant; tags: N-terminal His6;N-terminal His6; copies: 1;1; blunt
AIFΔ101 WT = AIFΔ101 WT (Homo sapiens, UniProt O95831 102-613); experiment: ITC; binary, no added metal; 15 °C; ITC: 50 mM potassium phosphate pH 7.4, 15 °C (25 °C with CypA); EMSA: same buffer, 25 °C, 30 min, 2% agarose; AFM on mica at room temperature; conditions: protein: recombinant; tags: N-terminal His6; blunt
Histone H2AX = Histone H2AX (Homo sapiens, UniProt P16104 1-143); experiment: ITC; binary; stronger than CypA; value in Table S4 not in material; ITC: 50 mM potassium phosphate pH 7.4, 15 °C (25 °C with CypA); EMSA: same buffer, 25 °C, 30 min, 2% agarose; AFM on mica at room temperature; conditions: protein: recombinant; tags: N-terminal His6 (PreScission site); blunt
AIFΔ101 D489A/K518A = AIFΔ101 D489A/K518A (Homo sapiens, UniProt O95831 102-613, D489A;K518A); experiment: ITC; binary; ITC: 50 mM potassium phosphate pH 7.4, 15 °C (25 °C with CypA); EMSA: same buffer, 25 °C, 30 min, 2% agarose; AFM on mica at room temperature; conditions: protein: recombinant; tags: N-terminal His6; blunt
AIFΔ101 K510A/K518A = AIFΔ101 K510A/K518A (Homo sapiens, UniProt O95831 102-613, K510A;K518A); experiment: as above; conditions: protein: recombinant; tags: N-terminal His6; blunt
[1] = target: AIFΔ101 WT;CypA;Histone H2AX (Homo sapiens;Homo sapiens;Homo sapiens, UniProt O95831;P62937;P16104 102-613;1-165;1-143, ||); experiment: ITC; dsDNA titrated into AIF:CypA with varied H2AX; intrinsic Kd from cooperativity fit, alpha 9.7; ITC: 50 mM potassium phosphate pH 7.4, 15 °C (25 °C with CypA); EMSA: same buffer, 25 °C, 30 min, 2% agarose; AFM on mica at room temperature; conditions: protein: recombinant;recombinant;recombinant; tags: N-terminal His6;N-terminal His6;N-terminal His6 (PreScission site); copies: 1;1;1; blunt
AIFΔ101 WT;CypA;Histone H2AX, sequence (O95831 102-613, stated change not applied, chain 1 of 3, other chains not shown): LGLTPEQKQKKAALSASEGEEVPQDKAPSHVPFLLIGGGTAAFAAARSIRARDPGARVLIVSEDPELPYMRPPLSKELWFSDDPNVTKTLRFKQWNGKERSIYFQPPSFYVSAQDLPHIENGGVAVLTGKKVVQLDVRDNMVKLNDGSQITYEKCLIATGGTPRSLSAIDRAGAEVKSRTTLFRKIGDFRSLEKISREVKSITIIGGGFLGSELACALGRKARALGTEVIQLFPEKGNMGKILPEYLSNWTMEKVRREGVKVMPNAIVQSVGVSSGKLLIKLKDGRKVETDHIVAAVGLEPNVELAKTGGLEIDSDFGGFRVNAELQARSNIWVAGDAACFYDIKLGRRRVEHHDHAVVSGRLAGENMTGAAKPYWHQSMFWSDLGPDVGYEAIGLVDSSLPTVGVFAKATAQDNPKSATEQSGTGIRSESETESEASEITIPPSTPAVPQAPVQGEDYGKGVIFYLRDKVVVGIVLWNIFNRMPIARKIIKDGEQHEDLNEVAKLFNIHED
AIFΔ101 WT;CypA;Histone H2AX, sequence (P62937 whole entry, stated change not applied, chain 2 of 3, other chains not shown): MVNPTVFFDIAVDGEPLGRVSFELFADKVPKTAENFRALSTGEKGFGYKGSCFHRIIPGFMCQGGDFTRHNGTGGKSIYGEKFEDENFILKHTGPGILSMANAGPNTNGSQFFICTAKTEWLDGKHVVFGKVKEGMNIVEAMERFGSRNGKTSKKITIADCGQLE

AIFΔ101 WT, sequence (O95831 102-613, stated change not applied): as the sequence (O95831 102-613, stated change not applied, chain 1 of 3, other chains not shown) above
AIFΔ101 WT;CypA, sequence (O95831 102-613, stated change not applied, chain 1 of 2): as the sequence (O95831 102-613, stated change not applied, chain 1 of 3, other chains not shown) above
AIFΔ101 WT;CypA, sequence (P62937 whole entry, stated change not applied, chain 2 of 2): as the sequence (P62937 whole entry, stated change not applied, chain 2 of 3, other chains not shown) above
AIFΔ101 WT;Histone H2AX, sequence (O95831 102-613, stated change not applied, chain 1 of 2, other chains not shown): as the sequence (O95831 102-613, stated change not applied, chain 1 of 3, other chains not shown) above
AIFΔ101 K510A/K518A, sequence (O95831 102-613 K510A/K518A): as the sequence (O95831 102-613, stated change not applied, chain 1 of 3, other chains not shown) above, with K409A, K417A counted along it
AIFΔ101 D489A/K518A, sequence (O95831 102-613 D489A/K518A): as the sequence (O95831 102-613, stated change not applied, chain 1 of 3, other chains not shown) above, with D388A, K417A counted along it

B1: 15-bp dsDNA (dsDNA)
DNA 1: GGTTAGTTATGCGCG
DNA 2: CGCGCATAACTAACC
Question: Does B1 bind (AIFΔ101 WT;Histone H2AX)?
Answer: binds

Question: Does B1 bind (AIFΔ101 WT;CypA)?
Answer: binds

Question: And the Kd (AIFΔ101 WT)?
Answer: 2900 nM

Question: Does B1 bind (Histone H2AX)?
Answer: binds

Question: What about the Kd (AIFΔ101 D489A/K518A) of the same binder?
Answer: 500 nM

Question: What about the Kd (AIFΔ101 K510A/K518A) of the same binder?
Answer: 500 nM

Question: What about the Kd [1] of the same binder?
Answer: 9100 nM
